Results published in the supplement of paper PMC10126150.
± gives the standard deviation of the averaged measurements.

Tested on: ATP
Assay: switch fluorescence ratio, 500 uM ATP over buffer (Cy3 cluster intensity, sum of 5 cycles each) (fold (ratio)); higher = stronger signal-on switching upon ATP binding; sequences stand for … in TCGTCGGCAGCGTCAGATGTGTATAAGAGACAGTTTTTTTTTTTTTTTTTTTTTTTTT…TC
Details: aptamer strand: ATP DNA aptamer (quencher-CACCTGGGGGAGTATTGCGGAGGAAGG + anchor), 100 nM annealed; ATP concentration: 500 uM
Outline: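 Per cluster, summed Cy3 intensity from the target cycles was divided by that from the buffer cycles to give the fluorescence ratio, then averaged per switch-domain sequence. Clusters outside 100-1000 RFU were excluded. The Cy3-labelled switching-strand clusters, on a modified Illumina MiSeq flow-cell, were annealed to 100 nM quencher-labelled ATP aptamer and imaged in selection buffer, then after 15 min with 500 uM ATP at 22 °C, for five cycles with NaOH stripping and re-annealing between them.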
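Further: ATP exposure 15 min at 22 °C before imaging.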

Sequence	switch fluorescence ratio
ATACTATTAT	1.03 ± 0.013
ATACTGGGGT	1.04 ± 0.056
ATACTTACTT	1.197 ± 0.011
ATACTTTATT	1.09 ± 0.034
ATACTTTTTT	1.01 ± 0.061
ATAGAAGGTG	1.43 ± 0.025
ATAGAATGGT	0.9829 ± 0.00046
ATAGAATTGG	1.02 ± 0.021
ATAGACTTAT	0.9765 ± 0.0093
ATAGAGGAGG	1 ± 0.021
ATAGAGGCTG	1.04 ± 0.064
ATAGAGGGAT	0.98 ± 0.026
ATAGAGGGGG	0.996 ± 0.03
ATAGATCCTT	0.9996 ± 0.0087
ATAGATGAGT	1.012 ± 0.0048
ATAGATTGTT	1.39 ± 0.59
ATAGCACGTT	1.03 ± 0.025
ATAGCAGAAG	1.06 ± 0.012
ATAGCAGGCG	1.01 ± 0.027
ATAGCGCCGT	1.01 ± 0.011
ATAGCTTGTA	0.995 ± 0.037
ATAGCTTGTG	0.996 ± 0.023
ATAGGACATC	1.03 ± 0.04

Sequence	switch fluorescence ratio
ATAGGAGTAG	0.993 ± 0.036
ATAGGAGTCT	1.09 ± 0.016
ATAGGATGAG	1.022 ± 0.0091
ATAGGCACAT	1.03 ± 0.029
ATAGGCATCA	1.18 ± 0.3
ATAGGCGTCG	0.967 ± 0.032
ATAGGCTATA	0.976 ± 0.025
ATAGGGAGAG	0.987 ± 0.016
ATAGGGAGGC	0.967 ± 0.035
ATAGGGATTG	0.996 ± 0.031
ATAGGGCCGC	1.02 ± 0.034
ATAGGGCG	0.987 ± 0.011
ATAGGGGGGT	1.02 ± 0.018
ATAGGGTACA	1.11 ± 0.052
ATAGGTAGGG	0.984 ± 0.0086
ATAGGTATGC	1 ± 0.06
ATAGGTCAAC	0.992 ± 0.044
ATAGTACGCC	1.28 ± 0.33
ATAGTAGTAG	0.998 ± 0.011
ATAGTAGTGT	0.998 ± 0.015
ATAGTATAAG	1.002 ± 0.0073
ATAGTATATT	0.982 ± 0.044
ATAGTATGGG	0.99 ± 0.046

Sequence	switch fluorescence ratio
ATAGTCAGGG	0.988 ± 0.036
ATAGTCATAC	1.25 ± 0.099
ATAGTCTTTT	1.02 ± 0.034
ATAGTGATAT	1.06 ± 0.11
ATAGTGGTTT	1.02 ± 0.021
ATAGTGTGTT	0.989 ± 0.021
ATAGTTATGG	0.992 ± 0.011
ATAGTTGCGG	1.047 ± 0.0011
ATAGTTGGC	1.04 ± 0.07
ATAGTTGTGG	0.977 ± 0.025
ATAGTTGTTT	1 ± 0.019
ATATAAAAAG	1.02 ± 0.061
ATATAAGTGA	0.9543 ± 0.0063
ATATAATACG	1.01 ± 0.024
ATATACAGGG	1.06 ± 0.024
ATATACATGT	1.02 ± 0.038
ATATACTTCT	1.02 ± 0.025
ATATAGCACG	1.02 ± 0.033
ATATAGGTGG	0.999 ± 0.026
ATATATAGTT	1.043 ± 0.01
ATATATGAGG	0.974 ± 0.03
ATATATTTAG	0.996 ± 0.012
ATATCTCGAG	0.981 ± 0.02

Sequence	switch fluorescence ratio
ATATGAACGA	1.021 ± 0.0066
ATATGAGGGG	0.965 ± 0.027
ATATGAGGTT	0.977 ± 0.023
ATATGAGTGA	0.985 ± 0.013
ATATGATGTA	0.966 ± 0.014
ATATGATTAG	0.993 ± 0.021
ATATGCATGG	0.969 ± 0.014
ATATGCCCT	1.04 ± 0.03
ATATGCTTTC	0.994 ± 0.011
ATATGGAGCA	1.03 ± 0.046
ATATGGTGGT	1.03 ± 0.023
ATATGGTGTA	0.959 ± 0.021
ATATGGTGTT	1.01 ± 0.025
ATATGTCAAG	1.0025 ± 0.00017
ATATGTGACG	1 ± 0.033
ATATGTGGCT	0.99 ± 0.054
ATATGTGGGG	1.01 ± 0.011
ATATGTTATG	0.982 ± 0.015
ATATGTTGTC	0.894 ± 0.11
ATATGTTGTT	0.98 ± 0.025
ATATTAAAGT	1.038 ± 0.0047
ATATTAAGAT	0.988 ± 0.028
ATATTAAGTC	1.02 ± 0.013

Sequence	switch fluorescence ratio
ATATTAGATT	1.019 ± 0.0076
ATATTAGGTC	1.01 ± 0.016
ATATTAGTAT	1.01 ± 0.038
ATATTATTTT	0.9788 ± 0.0047
ATATTCAGTA	1 ± 0.015
ATATTCTTAG	1.01 ± 0.013
ATATTCTTTG	0.997 ± 0.016
ATATTGAGGT	1 ± 0.013
ATATTGATTA	1.02 ± 0.032
ATATTGGGGT	1.01 ± 0.019
ATATTGGTAC	1.034 ± 0.0013
ATATTTAAAA	0.985 ± 0.021
ATATTTACTA	1.11 ± 0.11
ATATTTGAGT	0.9878 ± 0.0045
ATATTTGGCG	1.007 ± 0.0029
ATATTTTATG	1.03 ± 0.044
ATATTTTCAG	0.994 ± 0.012
ATATTTTGGG	1.003 ± 0.0089
ATCAAAATTT	1.03 ± 0.028
ATCAAAGCGG	0.998 ± 0.0094
ATCAAAGGGA	0.976 ± 0.048
ATCAACGGAA	1.08 ± 0.013
ATCAACGGCA	1.07 ± 0.023

Sequence	switch fluorescence ratio
ATCACGGGGG	1.02 ± 0.019
ATCACTGATT	1.057 ± 0.0085
ATCAGAAGGT	0.995 ± 0.021
ATCAGAATGA	1.013 ± 0.0023
ATCAGATTAC	1.025 ± 0.0092
ATCAGATTTT	0.9867 ± 0.0034
ATCAGCCATA	1.03 ± 0.036
ATCAGGGCGG	0.9887 ± 0.0089
ATCAGGGGCA	1.057 ± 0.0049
ATCAGGGTAT	1.07 ± 0.089
ATCAGGGTGC	1.06 ± 0.051
ATCAGGTGGT	1.19 ± 0.036
ATCAGTATTA	1.02 ± 0.016
ATCAGTTCCT	1.04 ± 0.013
ATCATACACT	1.06 ± 0.018
ATCATACGGG	1.03 ± 0.02
ATCATACTGT	1.007 ± 0.0024
ATCATAGGGG	1 ± 0.016
ATCATCTGAC	1.095 ± 0.0095
ATCATGATTC	0.983 ± 0.018
ATCATGGGAC	1.03 ± 0.0069
ATCATTAGGG	0.976 ± 0.032
ATCATTAGTA	0.999 ± 0.021

Sequence	switch fluorescence ratio
ATCCAGGGGT	1.06 ± 0.022
ATCCAGGGTA	1.01 ± 0.03
ATCCAGGTAG	1.75 ± 0.076
ATCCCGAAGC	1.93 ± 0.18
ATCCCGGGGA	0.962 ± 0.014
ATCCCGTAGG	0.9905 ± 0.0084
ATCCCTAAAA	1.0207 ± 0.00031
ATCCCTCATA	1.01 ± 0.018
ATCCGCCGCT	1.72 ± 0.089
ATCCGGACTT	1.02 ± 0.034
ATCCGGCGAT	1.35 ± 0.018
ATCCGGGGTT	1.06 ± 0.057
ATCCGGGTGG	1 ± 0.059
ATCCGGTTTG	0.982 ± 0.041
ATCCGTAATT	2.6 ± 0.22
ATCCGTTTTT	1 ± 0.016
ATCCTAGTGT	1.04 ± 0.052
ATCCTTGTTT	0.997 ± 0.083
ATCCTTTCTT	1.003 ± 0.0062
